According to patent US20200157542, “Bispecific Aptamer for Treating Cancer” (Augusta University Research Institute, Inc., published 2020):

What was measured:
[1] = molecular target: human serum albumin (HSA) (human, UniProt P02768 P02768:25-609); test: ELONA; immobilized HSA control, no positive signal; conditions: label: 3'-Cy5 on EpCAM strand for flow cytometry; two aptamers joined by 23 bp dsRNA adaptor with 2-3 unpaired base linkers
EpCAM = molecular target: T1, EpCAM (human, UniProt P16422 P16422:24-265); test: ELONA; bridging of 1 uM free EpCAM to plate-immobilized CD44; simple mixture of the two aptamers gave background only; conditions: tags: Thermo Fisher Scientific; label: 3'-Cy5 on EpCAM strand for flow cytometry; two aptamers joined by 23 bp dsRNA adaptor with 2-3 unpaired base linkers
T1 sequence: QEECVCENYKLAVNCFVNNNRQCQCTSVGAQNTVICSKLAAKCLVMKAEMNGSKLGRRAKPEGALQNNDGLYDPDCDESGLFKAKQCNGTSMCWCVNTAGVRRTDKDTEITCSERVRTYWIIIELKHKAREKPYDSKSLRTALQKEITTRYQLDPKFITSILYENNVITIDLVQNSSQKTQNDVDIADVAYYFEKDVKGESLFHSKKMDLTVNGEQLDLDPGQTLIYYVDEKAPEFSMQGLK
Procedure: Serially diluted recombinant human CD44 protein (0-500 nM) was loaded into 96-well microtiter plates at 50 μg/well in triplicates and incubated overnight at 4° C. Plates were further blocked with 5% BSA/sperm DNA (500 μg/ml)/yeast tRNA (500 μg/ml)/0.05% Tween-20 in PBS/T buffer overnight. CD44-EpCAM conjugates or simply mixed CD44 and EpCAM aptamers were incubated with 1 μM recombinant human EpCAM for 4 h at room temperature. For simply mixed CD44 and EpCAM, prior putting CD44 and EpCAM aptamers together, CD44 aptamer was blocked with ssDNA (5′-[…]-3′) (SEQ ID NO: 11). […] Detection of HRP was performed by incubating with 100 µL/well soluble Turbo TMB-ELISA substrate for 5 min, then reaction was quenched with 100 μl/well Stop solution and the absorbance at 450 nm was measured using TECAN Infinite M 200 plate reader.
The binding of bispecific CD44-EpCAM aptamer was examined by ELISA (FIG. 1B). […] As expected (FIG. 1C), CD44-EpCAM bispecific aptamers successfully linked to plate-immobilized CD44 protein and free EpCAM proteins, yielding CD44 protein concentration-dependent positive signals, whereas only the background signal was detected in a control experiment with a simple mixture of CD44 aptamer and EpCAM aptamer. […]

Sequence of human serum albumin (HSA) (P02768 25-609, one chain of several): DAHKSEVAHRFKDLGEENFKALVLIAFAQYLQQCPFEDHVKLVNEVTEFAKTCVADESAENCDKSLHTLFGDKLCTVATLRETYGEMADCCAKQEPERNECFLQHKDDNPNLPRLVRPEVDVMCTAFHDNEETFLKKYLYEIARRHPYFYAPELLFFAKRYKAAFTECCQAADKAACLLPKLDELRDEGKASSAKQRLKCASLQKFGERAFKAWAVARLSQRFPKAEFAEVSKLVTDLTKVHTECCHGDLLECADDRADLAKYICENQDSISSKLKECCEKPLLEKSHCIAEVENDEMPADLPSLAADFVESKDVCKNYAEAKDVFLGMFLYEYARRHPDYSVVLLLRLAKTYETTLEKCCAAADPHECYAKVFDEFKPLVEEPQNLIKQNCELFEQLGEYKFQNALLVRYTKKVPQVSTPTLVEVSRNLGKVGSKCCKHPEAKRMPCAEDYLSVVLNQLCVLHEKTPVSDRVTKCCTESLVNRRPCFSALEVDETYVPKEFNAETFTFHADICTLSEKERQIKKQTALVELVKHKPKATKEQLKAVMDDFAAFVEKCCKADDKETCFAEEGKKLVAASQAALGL

B1: CD44-EpCAM bispecific aptamer (ssRNA)
RNA 1: GGGAUGGAUCCAAGCUUACUGGCAUCUGGAUUUGCGCGUGCCAGAAUAAAGAGUAUAACGUGUGAAUGGGAAGCUUCGAUAGGAAUUCGGAAAAGCUUGUUCAGGAGAUGAAAUU
RNA 2: GCGACUGGUUACCCGGUCGUAAAAUUUCAUCUCCUGAACAAGCUU
modifications: RNA (U for T in printed DNA template), 2'-F pyrimidines throughout
- binding result [1]: no binding
- binding result (EpCAM): binds
